From patent publication US11857648B2, “Dimerization strategies and compounds for molecular imaging and/or radioimmunotherapy” (UNIVERSITY OF PITTSBURGH—OF THE COMMONWEALTH SYSTEM OF …, priority 2016, dated 2024) come the findings set out here.

In data set [1] the test system is bxpc3 and 4T1 tumor xenografts. Description: PET/CT imaging, subcutaneous xenograft mouse model. The class given is in vivo, NCr nude mice. The following applies: 1 hour post injection. As for the experimental part: In vivo PET/CT imaging was conducted in NCr nude mice bearing bxpc3 (human pancreatic adenocarcinoma cell line) and 4T1 (a murine breast cancer cell line that overexpresses integrin αvβ3 and CD13) tumor xenografts.
Mice were injected with bxpc3 cells (1 million cells in 150 μL PBS) into the subcutaneous flank of the right shoulder and 4T1 cells (1 million cells in 150 μL PBS) into the subcutaneous flank of the left shoulder.

The nature of data set [2]: PET/CT imaging, orthotopic xenograft mouse model. The class given is in vivo, Balb/c mice. To be noted: Balb/c, mouse, iv, total radioactivity, 1 hour post injection. How it is done: (§1) In vivo PET/CT imaging was conducted in Balb/c mice. One week after the orthotropic implantation of 1×10^6 luciferase-transfected KPCP cancer cells into the pancreas of Balb/c mice, the mice were used for PET imaging. Either the CNGRC-(^68Ga)NOTA-RGDyK heterodimer (“CNGRC” disclosed as SEQ ID NO: 1), (^68Ga)NOTA(CNGRC) (“CNGRC” disclosed as SEQ ID NO: 1), or (^68Ga)NOTA(RGDyK)] were injected into the bloodstream via tail vein injection. Blocking studies were conducted for the heterodimer studies by co-injecting 100× of CNGRC (SEQ ID NO: 1) and RGDyK. Small animal PET/CT was performed at 1 hour post injection of tracers (FIGS. 15A-15C).

Data set [3] concerns luciferase-transfected KPCP cancer cells. Description: PET/CT imaging, orthotopic xenograft mouse model. It is filed as in vivo, Balb/c mice. The following applies: 1 hour post injection. As for the experimental part: as §1
Data set [4] can be described thus: PET/CT imaging, spontaneous transgenic mouse model. The following applies: KCH (Pdx1-Cre;K-RasG12D/+; HMGB1−/−), mouse, in vivo, iv, total radioactivity, 1 hour post injection. As for the experimental part: (§2) In vivo PET/CT imaging was conducted in the genetically engineered KCH (Pdx1-Cre;K-RasG12D/+; HMGB1−/−) mouse model. High mobility group box 1 (HMGB1) is a critical regulator of autophagy, a major pathway for degradation of effete proteins and damaged organelles, and the conditional genetic ablation of HMGB1 limited to the pancreas inhibits autophagy, promotes proliferation, activates normally quiescent pathways, and renders mice extraordinarily sensitive to K-RasG12D/+-driven pancreatic carcinogenesis. The progression of PanINs from low grade PanINI to high grade PanIN3 could be observed as early as seven days (normally three-nine months) after birth in KCH (Pdx1-Cre;K-RasG12D/+;HMGB1−/−). PET imaging normally was performed˜6 weeks old KCH mice.
(§3) Either the CNGRC-(^68Ga)NOTA-RGDyK (“CNGRC” disclosed as SEQ ID NO: 1) heterodimer, (^68Ga)NOTA(CNGRC) (“CNGRC” disclosed as SEQ ID NO: 1), or (^68Ga)NOTA(RGDyK)] were injected into the bloodstream via tail vein injection. Blocking studies were conducted for the heterodimer studies by co-injecting 100× of CNGRC (SEQ ID NO: 1) and RGDyK. Small animal PET/CT was performed at 1 hour post injection of tracers (FIGS. 16A-16D).

Data set [5] concerns KCH (Pdx1-Cre;K-RasG12D/+; HMGB1−/−) mouse model. Description: PET/CT imaging, spontaneous transgenic mouse model. How it is done: as §2, §3

Turning to `N=C(N)NCCC[C@@H]1NC(=O)CNC(=O)[C@H](CC(N)=O)NC(=O)[C@@H](NC(=O)CCOCCOCCOCCOCCNC(=O)C(CCn2nnc3c2CCC2C(CC3)C2COC(=O)NCCOCCOCCOCCOCCC(=O)NCCCC[C@@H]2NC(=O)[C@@H](Cc3ccc(O)cc3)NC(=O)[C@H](CC(=O)O)NC(=O)CNC(=O)[C@H](CCCNC(=N)N)NC2=O)N2CCN(CC(=O)O)CCN(CC(=O)O)CC2)CSSC[C@@H](C(N)=O)NC1=O` (some centres unmarked) [CNGRC-(^68Ga)NOTA-RGDyK, metal not drawn], the in vivo performance result in data set [1] was “longer blood retention, better tumor/non-tumor ratios”; in data set [3] it was “longer blood retention, better tumor/non-tumor ratios”; in data set [5] (1 hour post injection) it was “longer blood retention, better tumor/non-tumor ratios”. For the same molecule, the tissue uptake at 1 h in data set [2] (blood, read-out: uptake in blood) came out at 0.1 %ID/g; in data set [2] (kidney, read-out: uptake in kidney) it was 2.2 %ID/g; in data set [2] (liver, read-out: uptake in liver), 1.8 %ID/g; in data set [2] (muscle, read-out: uptake in muscle), 0.1 %ID/g; in data set [2] (pancreas, read-out: uptake in pancrease), 0.36 %ID/g; in data set [2] (spleen, read-out: uptake in spleen) it was 1.1 %ID/g. The tissue uptake at 1 h in data set [4] (uptake in blood) came out at 0.23 %ID/g; in data set [4] (uptake in kidney), 5 %ID/g; in data set [4] (uptake in liver), 4.7 %ID/g; in data set [4] (uptake in muscle), 0.38 %ID/g; in data set [4] (uptake in spleen), 3.1 %ID/g. Moreover, the “uptake in orthotopic tumor” value in data set [3] worked out at 1.4 % ID/g. For the same molecule, the “uptake in malignant pancreas” value in data set [5] (1 hour post injection) is 5.9 % ID/g. Besides, the specific tumor uptake result in data set [5] (PET imaging) is on record as “showed specific tumor uptake”.
